Measured values published in paper PMC3627822.

Legend:
[1] = molecular target: soluble integrin α2β1 ectodomain (UniProt P17301); assay: ELISA
[2] = molecular target: sochicetin-C (Echis sochureki); assay: ELISA
[3] = molecular target: sochicetin-A (Echis sochureki); assay: ELISA
[4] = molecular target: sochicetin-B (Echis sochureki); assay: ELISA
[5] = molecular target: sochicetin-A αβ heterodimer (Echis sochureki); assay: SDS-PAGE, non-reduced against reduced and partly reduced + MALDI-TOF

## sochicetin-A (complex)
[1]
  IC50: 59.7 nM

## recombinant GST-tagged integrin α2 A-domain (domain or fragment)
[2]
  Kd: 54.5 nM
[3]
  Kd: 11.7 nM
[4]
  Kd: 17.3 nM

## sochicetin-C (complex)
[1]
  IC50: 1480 nM

## sochicetin-A αβ heterodimer (complex)
[5]
  stoichiometry N: 3

## sochicetin-B (complex)
[1]
  IC50: 32.7 nM
